The DeepSol protein solubility set

Assay: soluble on expression in E. coli; label from the status in PepcDB or PDB records

Row | Sequence | soluble on expression in E. coli
1 | MANSSVELRVSEAYPRDVGRKIVRIDRQTAARLGVEVGDFVKVSKGDRSVVAVVWPLRPDDEGRGIIRMDGYLRAALGVTVGDTVTVEKAEKVEPASKVVLAPTEPIRFGRDFVEYVKEFLLRKPISRGETIIVPVLEGLPLVVVSTQPAHFVYVTEATEVEIREKPVREEIERLRGVPKVTWEDIGDLEEAKERIREIVELPMKHPEIFKHLGIEPPKGILLYGPPGTGKTLLAKALANEIGAYFISINGPEIMSKYYGESEQRLREIFKEAEENAPSIIFIDEIDAIAPKREEVTGEVEKRVVAQLLTLMDGLKERGRVIVIGATNRPDAIDPALRRPGRFDREIEIRPPDKRARAEILKVHTRNMPLAEDVDLDKLAEMTHGYTGADLAALAKEAAMAALRRFIREGKINFEAKEIPATVLKELKVTMKDFMEAMKMIRPTLIREIYVEVPEVRWSDIGGLEEAKQALREAVEWPLKHPEIFEKMGIRPPRGVLLFGPPGTGKTLLAKAVATESGANFIAVRGPEILSKWVGESERAIRKIFERARQAAPAVVFFDEIDAIAPARGARFDTSGVTDRIVNQMLAEMDGIQPLSNVVVIGATNRPDILDPALLRPGRFDRLIYVPPPDKEARKEIFKIHTKKVPLGEDVDLEKLAEMTEGYTGADIEAVVREAVMAKLREKLEVGKVEMRHFLEALKKVPPSLTKEDILRYERLAKELKKLTLG | soluble
2 | MPLSQEESTLIERATATINSIPISEDYSVASAALSSDGRIFTGVNVYHFTGGPCAELVVLGTAAAAAAGNLTCIVAIGNENRGILSPCGRCRQVLLDLHPGIKAIVKDSDGQPTAVGIRELLPSGYVWEG | soluble
3 | MGSDKIHHHHHHMKPLPAQAIWFTAPHTVSIREEIAPPPAYGDVRIAAIASLISHGTERLVYRGEVDPTLALDLPTLQGSFAFPIKYGYAIAGRVIDIGPGVEQFQIGDPVAALHPHQTIFTLPAHLVKRLPDTLDPALGGFYANVETALTICHDAAPRLGETVVVLGQGVVGLLVTQLLQRTGAQVIAVEPDAHRRALATQFGATTLAQADPATIAELTDGRGADIVVEVSGSPAALQQAIELTATEGLVVVASWYGQKPAPLILGGHFHRGRVRLRSSQVGRLAPETLPRWDYARRSATVMNLLPRLCLNELISHRIPFVQAAAAYDLLDQAPPGLVQVMLTYADYAPQT | not soluble
4 | MTNDKMLARIAALLRQAEGTDNPHEADAFMSTAQRLATAASIDLAVARSHAGNRSPAQAPTQRTITIGAAGTRGLRTYVQLFVLIAAANDVRCDVASNSTFVYAYGFAEDIDTSHALYASLVVQMVRASDAYLASGAHRPTPTITARLNFQLAFGARVGQRLADAREQTRQEATKDRDRPPGTAIALRDKDIELHEYYRRSSKARGAWRASRATAGYSSAARRAGDRAGRQARLGNNPELPGARAALGR | soluble
5 | MTADALVRAPAEPTHPIREWTTVFVGTGDEHLVVAEGPKHRDWRKIGNVFREPARTAVLGLIRTCIADRELKIETFEGKVADALGPVAAAHPILTPDKSVVVAVQIWSGDPKKNPPDRPNVGAWEWVLSSEDNPPPPQLQLDPGAIELIGMSTRHQDRSVFGPADLYTRSARLSDTLRHVRQIRDCQVKDRFDGTFTIRAEADVTRELRYAERCVEGPAGRRVRGICWDAGTDEALVHESMLDAWLSTMLASTSGMYIAVGDLSYQYPYWLKWVTEHVPGLGHGVSTGQTFALHEEDWPKIIEWVQQVRKGPVSGTVRARRGGGGWLKAEFRGFLLDPLVSDSIGVAVISPEIETIPDETS | not soluble
6 | MSLKPAPRWPLHPAPREGEALSSWLNRVALCYHMEVSELLEHDLGHAQVDDLDTAPPLALLAMLSQRSGIEPDRLRCMSFAGWVPWLLDSLDDQIPDALETYAFQLSVLLPKLRRRTRSITSWRAWLPSQPIHRACPLCLNDPANQAVLLAWKLPLMLSCPLHGCWLESYWGVPGCQRRSNTDPWRRGEGHHHHHH | not soluble
7 | MNILKHFPSYVGPSKIRTLVIPIGHWTRKEFNNAVQKLSEFNEIHLSDVTPIDSPIFTPQGFPHGKLFFDFLTIDHDDALELFLYDFEPFRKTFVIIGLVNDYSDPLTNLNFMKEKYPTLISPNLVYASSTPTKELEQTIDTMENVFASSPDMQKNIETIMCDIARNFLTALNSYYSSYKHVTLRSPGAIGGNAVLKTTLIRQNSYTSSSSSTPMSAVQSSVSSSSKAGSVTTASKRLSSFEMTTNSLKRSASLKLATTLSTSENRSQQKSLGRQMKILGNFQLLAGRYVDALNSFVDAITTLYKVRDYLWLGSALDGISICFLLLSYLGLSYQIPQIVSLICPVEKLNFESSSTGISPVDSNSKATASTTASSTPRNSISIAAMQSPRNSIMSLSAPALNIDVENINLPLLIKCISDKVLYYYDLSLMHNSEYAPQVVYCEFLLKTLTFMTSCYKSSEFSKDVLDNIVKNQHRALSDIPNSPMFPRFEVYFYSNKLFELQLKEMQVEAQIKIYSTMAEVYRLLGYKRKQLFVLRLLMVALLATPNKIAWHPDYRTLIDTIIELLNINESEAKINVDDPSQSTWLILQKKILQLCIKVSRKINDFEYVAKFSSILITKYTHLLNQSEQDALFKEYIQPSITNESITSYWDPFILREVVINRILDSDPTSNEIPLESDVSSLESLENRQKTQDINPQEVFNPFKRVQPTSFVSNNSTKVPILVFLVGDKAEFTCRVQNPFKFDFTINDIQLDEEISEFCEIDRKAVSYSGPYNVKAESIRSITLPLIIKKPTYKKIYEISCLKISILKLPLQKFDIINDSRRSNPVEEEAEYSKCIYGKLKIKILPEQPQLELLSTSKMTRNSWMMLDGTKTDFHITVRNKSLSCAINHIKIIPMNNIEQMLKPDYWKKMPPDDLYIMEKQLDWLSKSCVRIIKLPTVIKPNETITFDLELDNTAVPFNFTGFDLLIEYGMSATDESCIYLKKLSIPYEVTLRRTIEVPSMDIIPLNELFSSQVENVDWIEYVMSKIRAESNLHSRDFILLLLDFRNSWIDGIKLNVQFEDFTSNEYHVEASHTSRIIVPIKKIDYKKYNFENTPIPRIYPGRQFIQSGLNEEQTIEMRQKFWCREHIISKLKCNWKLTTDQSVTGSVDFNKFIEKFDHKMVYTIYPGRLFYGVQLLLDEPKVKVGEIINLKIITEPTSTCRRKQNSTVNFLDIVIFDSKTSKILPRSNRRILYNGSLTKPISTTKVSEINLEIIPIEKGRYEFSVCISKSNNQDGIIQFDSENVILSVI | soluble
8 | VRMVGLTIETRPDWAFERQIDRMLAFGTTRVELGVQTIFNFIHERVGRGHGVEEIIKATQLLRDAGLKINYHIMPGLPGSNFERDLYVFKTIFEDPRFRPDMLKIYPTLVTRDAPLYAWYKAGLYKPYTTEEAVELLVEAYKIFPKWVRVMRIQRDIPSHLIVAGVKHSNLGQLVFEELVRRGIRPREI | not soluble
9 | GPLGSSWLFLEVIAGPAIGLQHAVNSTSSSKLPVKLGRVSPSDLALKDSEVSGKHAQITWNSTKFKWELVDMGSLNGTLVNSHSISHPDLGSRKWGNPVELASDDIITLGTTTKVYVRISSQNEFQIPFKIGVASDPMA | soluble
10 | MKDELIKKLSRPEWDFQYDSEKEVLRIEQKDSKKGINVSLPGVVAKWEVNKEKAIEEVAYYVQEALIAMHKEENSGAKILPVIRSTSFPKQAEEGNPFIMTDHTAETRIYYALDSNKTYRLIDERLLQKLELTEQQVREMALFNARSLGYEFKQDTVAGNTFYFLNTNDGYDATRILNESLLQSMREKISGDMVVAVPHQDVLIIADIVNEIGYDIIAQMTMKFFAEGHVPITSLSFVYEDGEFEPIFILAKNRKKTDGKEKG | not soluble
11 | MDVLNAANDLLPLLPEVQDALSEDFDGVECSMGAGVVLEQAPFRMAFPHMGRQVTFVPDTSCLEEFDGAKLHRINLGPKSAVFTDGEPGCCMELILGAGKDWKTPLVKLFSRVYPNKWAFFITELESGQATYHILSSSHGMLSSARREDTPDSTEQSSMVSSPTASVSDATNYSLWIVPVTKVFAIPAPKKVKVVRKVIKKRTPVDGSTNGTNGTSVVNGNGTMNGHVSPEDGERKVRLVKKKPPTEKLESSTEREISPLNDLPKPEFSTIASSESMKTVINGKSEREEAGPSNDSSDGGSASELRKKLTEKIMEQKFMVNGEQRALNGNASSRGLGRSISRSSMTPDRRLDPILEDGSKQRQAIASAISVNRPSITRNSATPPMTPHSKLALEMLFKLDKLWKYFKFIYSKCRYTFIQFFNSTFSNTKIYSVEIMDAEVIKVLVSHPSKPNIPVMVLQLVLTKCLNYEHLGRLREVHPHWDEIAGQLLNSGYYKLLERSDKLLMTLQRKVVSDPGLHYATSVLTNIQMHILNPVDIMRAVLDEGVCCFPYGVILDKTFILLDKVEAMLHGSYEEDVHWEPVAKLAKKAASHYRGNLERVMEERMGENLRLKAAQRIIRLESFVVDAQVAKLEKESNKAKEDVRWEIDQLHQKNSQLRKDNREMKANQMRLEARVEALEQKFKTLARLLS | not soluble
12 | MDHIELRKKIGQAIRTARIRRGLVMRDLAEAGGVSTGAVGNWERGANAIAMEHLQAISQKLRIDPVALSNGSLRYLDEEEALADAEQVTDFGPAPTGPMDVEVLGVAVGGDDGDFTLNGEVSGYVRRPPGIAHLRKVFALHVLSDSMIPRYDPGELIYVGGREAVAGDHVVIEMFPDEGATVGKAYVKKLKGRTKGAIVCEQYNPPKELQFDQYAIKNMWRIIPLRELLGY | not soluble
13 | MGSDKIHHHHHHMERFFIVGCGDIGKKVARIALADGAGVAALIRSPEKAESLREMGVTALEANLDERDSLAGMPTRGAVVFYFAPPPGGGVTDPRVRAFCDAIAPGEEPRKIVYLSTSGVYGDCGGDVVTEETPPNPQTSRARRRYDAETVFRQWGAERGVPVVILRVTGIYGPGRLPLQQLTSGQPVLEESLAPFTNRIHSEDLARICLAAAEHGEDGDIFNVSDGHPTTMTAYFDACADALGLPRPRRVTLEEARRVMTPLMFSYVTESRKMDNRLMREKLHVTLLYPTMQEGVRSSVA | not soluble
14 | VLKLDRQTQIWNRASLESGGATPAAGDIALASLLLAHGLAMNGGVAHAIESLSQAEIAAAIDGFNYFGLTDASHVFEQRPDDSEDVEERLNMMYRTAVPNDRVLAHAFRVKLVSTPSAFAPIDHGAHV | not soluble
15 | SLALSPGNLQKTAAGPDGQPQLAEKAPEKAQVDVPAAGDTAGLQPQSGRSGANINRATLPDGNVVSVYSPRPRDSDGPVLMSGQTYGQDPRMATRPNEELLEETAFGQLPVVGADGLRPMEQYARPWSGARGTRVAIVVGGLGLSQTGSQKAIRDLPPEVTLGFAASGNSLQRWMQDARREGHEILLQIPLEPFGYPGTNPGPDTLLAGDPAKVNIDRLHRSMAKITNYTGVMNYLGGRFLAEQSALEPVMRDIGKRGLLFLDDGSSAQSLSGGIAKAISAPQGFADVLLDGEVTEASILRKLDDLERIARRNGQAIGVASAFDESIAAISKWSREAGGRGIEIVGVSALVSGQAGQ | soluble
16 | MGSDKIHHHHHHGNSSTGLSSGGSNVSLEVLKHRPLVEKYAKESDILEYVPILLAIIQVESGGTMEDVMQSSESAGFPPNSLSTEASIKQGCIYFASLVNRAKDIGCDQESIIQSYNYGGGYLDYVGKNGKKYSFALAESFSKEKSDGEKVTYSNPIAIKENGGWRYNYGNMFYVMLVKQYLTTTKFDDKTVQGIFDEAFKYEGTAYVFGGSSPATGFDCSGLTQWCYAKVGLQLPRVAQDQYDAMSHIELKDAKPGDLIFFHSTYDAGTYVTHVGIYAGDNRMFHAGDPVGWTNLTETYWQQHIIGAGRYKNRKGDR | not soluble
